Assay results taken from patent US20050037967A1 (RESEARCH DEVELOPMENT FOUNDATION, published 2005).

How the values were obtained:
[1] = target: human FLT-1 receptor (VEGFR-1) on PAE/FLT-1 cells (human) (UniProt P17948); assay: cell-based or functional assay
[2] = target: Flt-1 on osteoclast precursor cells (RAW 264.7 cells and mouse bone marrow-derived monocytes) (mouse) (UniProt P35969); assay: cell-based or functional assay
[3] = target: human kinase domain receptor (KDR, VEGFR-2) on cells (human) (UniProt P35968); assay: cell-based or functional assay
[4] = target: Flk-1 on murine brain endothelioma bEnd.3 cells (mouse) (UniProt P35918); assay: cell-based or functional assay
[5] = target: KDR/Flk-1 on adult bovine aortic arch-derived endothelial cells (ABAE) (bovine); assay: cell-based or functional assay
[6] = target: FLK-1 on PAE/FLK-1 cells; assay: cell-based or functional assay
[7] = target: T1, soluble mouse Flk-1, purified and biotinylated, expressed in Sf9 cells (mouse, UniProt P35918 20-762); assay: ELISA, biotinylated soluble mouse Flk-1 on NeutrAvidin-coated plates; detection with 2C3
T1 construct: Captured on NeutrAvidin-coated plates; Only 'soluble' is said of the construct; also called biotinylated mouse flk-1 receptor; flk-1 receptor
T1 sequence (P35918 20-762 limits assumed): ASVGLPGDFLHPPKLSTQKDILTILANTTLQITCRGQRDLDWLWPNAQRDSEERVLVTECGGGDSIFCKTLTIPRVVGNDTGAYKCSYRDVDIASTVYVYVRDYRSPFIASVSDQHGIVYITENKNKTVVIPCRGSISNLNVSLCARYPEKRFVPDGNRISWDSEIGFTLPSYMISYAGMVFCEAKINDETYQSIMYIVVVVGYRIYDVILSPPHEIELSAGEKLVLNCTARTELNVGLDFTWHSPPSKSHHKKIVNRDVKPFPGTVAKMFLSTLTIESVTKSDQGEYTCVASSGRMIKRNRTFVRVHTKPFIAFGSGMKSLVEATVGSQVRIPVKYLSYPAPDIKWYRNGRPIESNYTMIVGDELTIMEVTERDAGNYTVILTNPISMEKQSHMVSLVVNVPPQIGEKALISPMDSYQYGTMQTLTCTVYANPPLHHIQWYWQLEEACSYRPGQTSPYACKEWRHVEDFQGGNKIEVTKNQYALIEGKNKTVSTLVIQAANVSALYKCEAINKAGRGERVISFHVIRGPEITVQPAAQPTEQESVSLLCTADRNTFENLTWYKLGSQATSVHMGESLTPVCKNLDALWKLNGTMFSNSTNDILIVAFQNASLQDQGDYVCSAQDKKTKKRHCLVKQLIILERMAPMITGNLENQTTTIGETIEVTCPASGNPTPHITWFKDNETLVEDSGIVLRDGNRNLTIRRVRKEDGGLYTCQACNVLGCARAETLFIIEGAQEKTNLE

Sequence of FLK-1 on PAE/FLK-1 cells (P35968 20-1356): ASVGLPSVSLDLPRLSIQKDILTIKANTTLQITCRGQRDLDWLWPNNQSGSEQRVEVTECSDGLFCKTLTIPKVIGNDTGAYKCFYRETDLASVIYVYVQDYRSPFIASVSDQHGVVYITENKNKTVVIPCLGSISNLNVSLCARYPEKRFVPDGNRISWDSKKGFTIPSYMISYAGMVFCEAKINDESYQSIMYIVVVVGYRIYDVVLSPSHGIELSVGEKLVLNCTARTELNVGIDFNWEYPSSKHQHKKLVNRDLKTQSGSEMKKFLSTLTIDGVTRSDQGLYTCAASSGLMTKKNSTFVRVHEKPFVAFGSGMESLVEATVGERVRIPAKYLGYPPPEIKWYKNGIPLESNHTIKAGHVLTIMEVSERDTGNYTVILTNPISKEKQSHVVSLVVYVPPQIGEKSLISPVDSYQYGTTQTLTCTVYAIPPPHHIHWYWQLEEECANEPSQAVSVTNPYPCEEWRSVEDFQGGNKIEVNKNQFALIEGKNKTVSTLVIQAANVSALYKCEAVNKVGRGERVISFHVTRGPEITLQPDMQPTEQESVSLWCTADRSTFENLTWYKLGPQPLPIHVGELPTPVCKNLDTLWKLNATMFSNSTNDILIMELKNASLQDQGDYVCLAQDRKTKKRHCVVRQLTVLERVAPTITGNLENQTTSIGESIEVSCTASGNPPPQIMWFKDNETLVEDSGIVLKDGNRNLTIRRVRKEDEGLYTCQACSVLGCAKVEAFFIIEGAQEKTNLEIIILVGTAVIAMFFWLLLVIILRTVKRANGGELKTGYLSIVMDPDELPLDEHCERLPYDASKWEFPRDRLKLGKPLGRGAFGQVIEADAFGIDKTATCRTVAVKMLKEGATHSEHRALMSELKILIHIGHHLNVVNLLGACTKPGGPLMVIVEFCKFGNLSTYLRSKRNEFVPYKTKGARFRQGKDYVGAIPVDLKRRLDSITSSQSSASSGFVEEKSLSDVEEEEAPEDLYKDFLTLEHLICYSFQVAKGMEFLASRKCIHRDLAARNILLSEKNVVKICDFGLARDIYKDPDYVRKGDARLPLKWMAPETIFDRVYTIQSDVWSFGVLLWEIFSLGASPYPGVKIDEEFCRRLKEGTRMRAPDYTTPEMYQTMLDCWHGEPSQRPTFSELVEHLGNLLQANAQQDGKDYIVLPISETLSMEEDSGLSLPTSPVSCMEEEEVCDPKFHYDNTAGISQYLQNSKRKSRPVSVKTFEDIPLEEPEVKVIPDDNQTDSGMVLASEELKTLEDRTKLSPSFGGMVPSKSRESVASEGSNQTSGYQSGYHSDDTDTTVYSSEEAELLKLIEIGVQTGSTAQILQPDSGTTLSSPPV
Sequence of human kinase domain receptor (KDR, VEGFR-2) on cells (human) (P35968 20-1356): as above
Sequence of human FLT-1 receptor (VEGFR-1) on PAE/FLT-1 cells (human) (P17948 27-1338): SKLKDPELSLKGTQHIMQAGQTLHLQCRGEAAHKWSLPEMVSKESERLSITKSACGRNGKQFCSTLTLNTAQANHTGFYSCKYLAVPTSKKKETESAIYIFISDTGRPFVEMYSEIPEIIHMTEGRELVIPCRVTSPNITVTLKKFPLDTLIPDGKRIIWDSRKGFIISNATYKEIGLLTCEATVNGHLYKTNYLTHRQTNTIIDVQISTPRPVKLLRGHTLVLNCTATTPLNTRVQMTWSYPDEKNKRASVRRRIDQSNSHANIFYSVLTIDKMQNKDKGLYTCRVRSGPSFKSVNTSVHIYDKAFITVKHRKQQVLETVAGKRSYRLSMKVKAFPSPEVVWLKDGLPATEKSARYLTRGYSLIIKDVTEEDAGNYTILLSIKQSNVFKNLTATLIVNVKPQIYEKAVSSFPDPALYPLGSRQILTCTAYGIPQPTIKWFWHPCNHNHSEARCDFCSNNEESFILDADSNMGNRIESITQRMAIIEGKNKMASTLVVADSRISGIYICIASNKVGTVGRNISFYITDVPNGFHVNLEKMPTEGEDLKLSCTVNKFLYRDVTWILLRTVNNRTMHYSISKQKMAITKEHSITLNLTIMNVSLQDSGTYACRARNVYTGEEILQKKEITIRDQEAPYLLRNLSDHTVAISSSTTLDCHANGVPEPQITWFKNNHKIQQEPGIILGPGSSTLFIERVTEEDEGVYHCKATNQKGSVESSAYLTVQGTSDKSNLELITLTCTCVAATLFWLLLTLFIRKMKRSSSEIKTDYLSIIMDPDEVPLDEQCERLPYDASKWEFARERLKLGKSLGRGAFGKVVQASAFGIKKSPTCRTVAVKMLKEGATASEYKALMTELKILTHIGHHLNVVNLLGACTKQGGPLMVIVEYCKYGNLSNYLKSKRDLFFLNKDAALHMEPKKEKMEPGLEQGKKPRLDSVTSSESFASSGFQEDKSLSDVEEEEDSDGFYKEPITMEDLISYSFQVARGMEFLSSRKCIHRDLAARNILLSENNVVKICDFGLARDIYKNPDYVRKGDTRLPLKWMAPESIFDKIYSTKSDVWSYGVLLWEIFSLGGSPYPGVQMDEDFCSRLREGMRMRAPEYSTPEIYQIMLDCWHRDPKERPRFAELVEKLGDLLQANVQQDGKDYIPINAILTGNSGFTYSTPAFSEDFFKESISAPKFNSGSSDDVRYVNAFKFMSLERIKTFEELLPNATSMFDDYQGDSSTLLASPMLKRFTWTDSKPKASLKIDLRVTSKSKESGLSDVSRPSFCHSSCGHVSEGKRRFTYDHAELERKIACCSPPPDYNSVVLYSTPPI
Sequence of Flt-1 on osteoclast precursor cells (RAW 264.7 cells and mouse bone marrow-derived monocytes) (mouse) (P35969 23-1333 S1181G): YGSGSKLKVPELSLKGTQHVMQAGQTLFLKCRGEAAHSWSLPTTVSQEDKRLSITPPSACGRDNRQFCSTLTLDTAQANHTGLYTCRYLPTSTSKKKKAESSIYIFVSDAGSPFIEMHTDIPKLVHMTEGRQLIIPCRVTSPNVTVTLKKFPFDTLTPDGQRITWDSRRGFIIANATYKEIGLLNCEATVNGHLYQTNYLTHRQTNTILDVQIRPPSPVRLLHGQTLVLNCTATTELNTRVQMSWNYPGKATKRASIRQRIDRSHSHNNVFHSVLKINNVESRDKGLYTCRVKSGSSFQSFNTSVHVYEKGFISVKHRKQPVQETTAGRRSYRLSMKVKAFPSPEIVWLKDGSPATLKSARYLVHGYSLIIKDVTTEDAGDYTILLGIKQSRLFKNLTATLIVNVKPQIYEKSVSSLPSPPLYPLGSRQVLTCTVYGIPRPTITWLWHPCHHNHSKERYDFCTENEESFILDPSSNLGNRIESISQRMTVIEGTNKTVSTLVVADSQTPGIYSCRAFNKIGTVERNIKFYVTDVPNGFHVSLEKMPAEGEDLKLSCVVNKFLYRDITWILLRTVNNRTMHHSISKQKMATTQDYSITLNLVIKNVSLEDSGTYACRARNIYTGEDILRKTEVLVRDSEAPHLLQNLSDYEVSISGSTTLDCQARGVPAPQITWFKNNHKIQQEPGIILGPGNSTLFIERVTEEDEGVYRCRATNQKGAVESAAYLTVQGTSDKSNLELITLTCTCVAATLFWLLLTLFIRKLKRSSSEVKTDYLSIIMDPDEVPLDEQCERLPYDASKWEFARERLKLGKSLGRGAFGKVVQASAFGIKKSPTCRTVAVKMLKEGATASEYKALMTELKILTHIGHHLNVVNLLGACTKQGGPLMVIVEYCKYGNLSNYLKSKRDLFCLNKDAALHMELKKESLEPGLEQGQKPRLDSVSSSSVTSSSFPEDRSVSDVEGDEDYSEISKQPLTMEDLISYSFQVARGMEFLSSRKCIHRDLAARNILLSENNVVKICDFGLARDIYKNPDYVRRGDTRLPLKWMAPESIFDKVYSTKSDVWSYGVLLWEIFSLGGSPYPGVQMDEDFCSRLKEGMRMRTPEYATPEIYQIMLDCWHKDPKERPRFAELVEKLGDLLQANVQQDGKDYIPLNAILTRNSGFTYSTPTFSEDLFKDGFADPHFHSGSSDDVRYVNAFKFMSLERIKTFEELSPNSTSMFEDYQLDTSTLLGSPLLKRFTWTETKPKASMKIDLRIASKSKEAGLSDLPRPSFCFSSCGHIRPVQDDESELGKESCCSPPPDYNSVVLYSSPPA

VEGF121/rGel fusion toxin (VEGF121 at the N-terminus, G4S tether, recombinant gelonin) (from UniProt P15692 27-147; P33186 47-297)
IC50 for VEGF121/rGel (nM), cytotoxicity, PAE/FLT-1 (confluent) [1]: > 5000 nM | IC50 for VEGF121/rGel (nM), cytotoxicity, PAE/FLT-1 (log phase) [1]: 300 nM | Targeting index, PAE/FLT-1 (confluent) [1]: < 2 | Targeting index, PAE/FLT-1 (log phase) [1]: 1 | dose inhibiting tube formation of PAE/Flt-1 cells on Matrigel by 50% [1]: 100 nM | IC50, cytotoxicity on bone marrow-derived monocytes [2]: 10 nM | IC50, cytotoxicity on dividing RAW cells [2]: 40 nM | IC50, cytotoxicity on log-phase PAE/KDR cells, 72 h (bladder tumor comparison experiment) [3]: 1 nM | IC50 for VEGF121/rGel (nM), cytotoxicity, HUVEC (hypoxia) [3]: 700 nM | IC50 for VEGF121/rGel (nM), cytotoxicity, HUVEC (normoxia) [3]: 800 nM | IC50 for VEGF121/rGel (nM), cytotoxicity, PAE/KDR (confluent) [3]: 30 nM | IC50 for VEGF121/rGel (nM), cytotoxicity, PAE/KDR (log phase), 72 h [3]: 0.5 nM | Targeting index (ratio of IC50 of rGel to VEGF121/rGel), PAE/KDR (log phase) [3]: 600 | Targeting index, HUVEC (hypoxia) [3]: 1 | Targeting index, HUVEC (normoxia) [3]: 1 | Targeting index, PAE/KDR (confluent) [3]: 167 | dose inhibiting tube formation of PAE/KDR cells on Matrigel by 50% [3]: 1 nM | IC50 for VEGF121/rGel (nM), cytotoxicity, bEnd3 (log phase) [4]: 1 nM | Targeting index, bEnd3 (log phase) [4]: 100 | IC50 for VEGF121/rGel (nM), cytotoxicity, ABAE (log phase) [5]: 0.059 nM | Targeting index, ABAE (log phase) [5]: 8.9 | IC50, cytotoxicity on PAE/FLK-1 cells, XTT, 72 h [6]: 1 nM

GrB/VEGF121 fusion protein (mature granzyme B, G4S tether, VEGF121) (from UniProt P10144 21-247; P15692 27-147)
clonogenic (colony-forming) assay on PAE/FLT-1 cells [1]: > 100 nM | cytotoxicity on log-phase PAE/FLT-1 cells, XTT, 72 h [1]: > 200 nM | IC50, clonogenic (colony-forming) assay on PAE/FLK-1 cells [6]: 20 nM | IC50, cytotoxicity on log-phase PAE/FLK-1 cells, XTT, 72 h [6]: 10 nM

B1: native human VEGF121 (ligand)
chain: APMAEGGGQNHHEVVKFMDVYQRSYCHPIETLVDIFQEYPDEIEYIFKPSCVPLMRCGGCCNDEGLECVPTEESNITMQIMRIKPHQGQHIGEMSFLQHNKCECRPKKDRARQEKCDKPRR
notes: mature; also called free VEGF121
binding result [7]: binds
